From the nanobody polyreactivity screen of Harvey et al. (2022)

assay: yeast display, Sf9 membrane polyspecificity reagent, FACS + sequencing; frameworks hold sequencing errors
How it was run: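 Genes from sorted yeast were amplified by colony PCR, read by MiSeq 2 × 250 sequencing and filtered on CDR length. These cells carried a synthetic nanobody library in Saccharomyces cerevisiae BJ5465 and were sorted by FACS into low and high (top ~1%) gates on anti-HA and streptavidin fluorescence. Polyreactivity is labelled according to the gate of origin.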

| Sequence | polyreactivity (PSR sort gate) |
| --- | --- |
| QVQLVESGGGLVQAGGSLRLSCAASGIIFADNDMGWYRQAPVKERELVATISSAGNTNYADSVKGRFTISRDNAKNTVYLQMNSLKPEDTAVYYCAVVYYIPLLPPWIYEYDYWGQGTQVTVSS | low polyreactivity |
| QVQLVESGGGLVQAGGSLRLSCAASGIIFADYAMGWYIQAPGKERELVAAISTSGGSTYYADSVKGRFTISRDNAKNPVYLQMNSLKPEDTAVYYCNAVYYTSYSGYQFVYEYDYWGQGTQVTVSS | low polyreactivity |
| QVQLVESGGGLVQAGGSLRLSCAASGIIFALNAMGWYRQAPGKERELVATIDSTSGSTYYADSVKGRFTISRDNAKNTVYLQMNSLKPEDTAVYYCAVVHAQSAPMDYWGQGTQVTVSS | low polyreactivity |
| QVQLVESGGGLVQAGGSLRLSCAASGIIFAQYTMGWYRQAPGKERELVAAINRNGGSTYYADSVKGRFTISRDNAKNTVYLQMNSLKPEDNAVYYCIADALGFRFDYWGQGTQVTVSS | low polyreactivity |
| QVQLVESGGGLVQAGGSLRLSCAASGIIFARNAMGWYRQAPGKERELVATISRNGGRTYYADSVKGRFTISRDNAKNTVYLQMNSLKPEDTAVYYCARPYYGSWHSYGVDYWGQGTQVTVSS | high polyreactivity |
| QVQLVESGGGLVQAGGSLRLSCAASGIIFARYAMGWYRQAPGKERELVAAISNRGTSTYYADSVKGRFTISRDNAKNTVYLQMNSLKPEDTAVYYCKRVKDGYWGQGTQVTVSS | high polyreactivity |
| QVQLVESGGGLVQAGGSLRLSCAASGIIFARYAMGWYRQAPGKERELVAAITRRAVSTYYADSVKGRFTISRDNAKNTVYLQMNSLKPEDTAVYYCAADRASYFTYAYGYWGQGTQVTVSS | high polyreactivity |
| QVQLVESGGGLVQAGGSLRLSCAASGIIFAYNAMGWYRQAPGKERELVAAISVIGGTTYYADSVKGRFTISRDNAKNTVYLQMHSLKPEDTAVYYCAVDSVQYGGGYERLHELYYWGQGTQVTVSS | low polyreactivity |
| QVQLVESGGGLVQAGGSLRLSCAASGIIFAYNAMGWYRQAPGNERELVAAITSGTSTHYADSVKGRFTISRDNAKNTVYLQMNSLKPEDTAVYYCAKVYSYFNPRTYKPSFAGSDYWGQGTQVTVSS | low polyreactivity |
| QVQLVESGGGLVQAGGSLRLSCAASGIIFAYYAMGWYRQAPGKETELVAAINRSGGTTYYADSVKGRFTISRDNAKNTVYLQMNSLKPEDTAVYYCNALTTWRYRYDYWGQGTQVTVSS | high polyreactivity |
| QVQLVESGGGLVQAGGSLRLSCAASGIIFAYYTMGWYRQAPGKLRELVAAISWNGGRTYYADSVKGRFTISRDNAKNTVYLQINSLKPEDTAVYYCAARDASSFLRSYYWGQGTQVTVSS | high polyreactivity |
| QVQLVESGGGLVQAGGSLRLSCAASGIIFDEYAMGWYRQAPGKERELVATISSGGDTNYADSVKGRFTISRDNAKHTFYLQMNSLKPEDTALYYCAATVYDGYSPYDYDYWGQGTQVTVSS | low polyreactivity |
| QVQLVESGGGLVQAGGSLRLSCAASGIIFDGYAMGWYRQAPGKEREFVAAITSGGGSTSYADSVKGRFTISRDNAKNTVYLQMNSLKPEDTAVYSCAARSNRFYVRQRYGYWGQGTQVTVSS | high polyreactivity |
| QVQLVESGGGLVQAGGSLRLSCAASGIIFDGYVMGWYRQAPGNERELVAAISRSGGRTFYADSVKGRFTISRDNAKNTVYLQMNSLKPEATAVYYCAARRVRTRGYNYWGQGTQVTVSS | high polyreactivity |
| QVQLVESGGGLVQAGGSLRLSCAASGIIFDLNAMGWYRQAPGKERELVAAISSGGGTYYADSVKGRFTISRDNAKNTVYLQMNSLKPEDTAVYYCNRVTRWTYNYWGQGTLVTVSS | high polyreactivity |
| QVQLVESGGGLVQAGGSLRLSCAASGIIFDPYAMGWYRQAPGKERELVADIDNASSTYYADSVKGRFTISRDNAKNTVYLQMNSLKPEDTAVYYCTADLWYGGEYWGQGTQVTVSS | low polyreactivity |
| QVQLVESGGGLVQAGGSLRLSCAASGIIFDSYAMGWYRQAPGKERELVAAISTSGGSTYYADSVKGRFTISRDNAKNTVYLQMNSLKPEDTEVYYCAARYAVSRYRFGFNYWGQGTQVTVSS | high polyreactivity |
| QVQLVESGGGLVQAGGSLRLSCAASGIIFDSYTMGWYRQAPGKERELVAAISVSGGSTYYADSVKGRFTISRDNAKNTVYLQMNSLKPEDTAVYYCATVPSLPDYDSWGQGTQVTVSS | low polyreactivity |
| QVQLVESGGGLVQAGGSLRLSCAASGIIFDWYAMGWYRQAPGKERELVAAISYSGGTTYYADSVKGRFTISRDNAKNTVYFQMNSLTPEDTAVYYCAARYEGAAANYVEYGYWGLGTQVTVSS | low polyreactivity |
| QVQLVESGGGLVQAGGSLRLSCAASGIIFDYNAMGWYRQAPGKERELVAAITSTDNTNYADSVKGRFTISRDNAKNTVYLQMNSLKPEDTAVYYCNSVYWLSVVYAMDYWGQGTQVTVSS | low polyreactivity |
| QVQLVESGGGLVQAGGSLRLSCAASGIIFDYNAMGWYRQAPGKERELVAAITSTDNTNYADSVKGRFTISRDNAKNTVYLQMNSLKPEDTAVYYCNTDYLLCVVYAMDYCGQGTQVTVSS | low polyreactivity |

| Sequence | polyreactivity (PSR sort gate) |
| --- | --- |
| QVQLVESGGGLVQAGGSLRLSCAASGIIFDYYDMGWYRQAPGKERELVAAISDDGGSTYYADSVKGRFTISRDNAKNTVYLQMNSLKPEDTAVYYCAADSYYAYPYGYGYWGQGTQVTVSS | high polyreactivity |
| QVQLVESGGGLVQAGGSLRLSCAASGIIFEGNVMGWYRQAPGKERELVAAITSDTSTNYADSVKGRFTISRDNAKNSVYLQMNSLKPEDTAVYYCDALRRYPRPNIYGYWGQGTQVTVSS | low polyreactivity |
| QVQLVESGGGLVQAGGSLRLSCAASGIIFEYYAMGWYRQAPGKERELVAAISKRGGSTYYADSVKGRFTISRDNAKNTVYLQMNSLKPEDTAVYYCNARRWWVIRDYWGQGTQVTVSS | high polyreactivity |
| QVQLVESGGGLVQAGGSLRLSCAASGIIFEYYDRGWYRQAPGKERELVAAIDSGGSTYYADSVKGRFTISRDNAKNTVYLQMNSLKPEDTAVYYCAAETVRYDWGESPAALFDYWGQGTQVTVSS | low polyreactivity |
| QVQLVESGGGLVQAGGSLRLSCAASGIIFEYYTMGWYRQAPGNERELVASITYDGDSTYYADSVKGRFTISRDHAKNTVYLQINSLKPEDTAVYFCAADYYYVYSSFGHYYWGQGTQVTVSS | low polyreactivity |
| QVQLVESGGGLVQAGGSLRLSCAASGIIFFDYAMGWYRQAPGKERELVAAITSSGGSTYYADSVKGRFTISRDNAKNTVYLQMNSLKPEDTAVYYCAAATRGSGRRNDYWGQGTQVTVSS | high polyreactivity |
| QVQLVESGGGLVQAGGSLRLSCAASGIIFFIYAMGWYRQAPGKERELVARISWRGGSTSYADSVKGRFTISRDNAKNTVYLQMNSLKPEDTAVYYCAAGVYSFRYDSWGQGTQVTVSS | low polyreactivity |
| QVQLVESGGGLVQAGGSLRLSCAASGIIFFKYAKGWYRQAPGKEKELVAAITSGGSTYYADSVKGRFTISRDNAKHTVYLQMNSLKPEDTAFYYCAAAGGRFIRYGYWGQGTQVTVSS | high polyreactivity |
| QVQLVESGGGLVQAGGSLRLSCAASGIIFFKYAMGWYRQAPGKERQLVAAITSGGSTYYADSVKGRFTISRDNEKNTVYLQMNSLKPVDTAVYYCAAAGGRFIRYGYWGQGTQVTVSS | high polyreactivity |
| QVQLVESGGGLVQAGGSLRLSCAASGIIFFRNAMGWYRQAPGKERELVAAISSGGSTYYADSVKGRFTISRDNAKNTVYLQMNSLKPEDTAVYYCNKVVPLYYASYDYWGQVTQVTVSS | low polyreactivity |
| QVQLVESGGGLVQAGGSLRLSCAASGIIFFRNPMGWYRQAPGKERELVAAISSGGSTYYADSVKGRFTISRDNAKNTVYLQMNSLKPEDTAVYYCNQVGPLYYASYDYWGQGTQGTVSS | low polyreactivity |
| QVQLVESGGGLVQAGGSLRLSCAASGIIFGDYAMGWYRQAPGKERELVAGISITGDSTYYADSVKGRFTISRDNAKNTVYLQMNSLKPEDTAVSYCAAGWALIFDYWGQGTQVTVSS | low polyreactivity |
| QVQLVESGGGLVQAGGSLRLSCAASGIIFGEYPMGWYRQAPGKERELVAAISWSGGSTYYADSVKGRFTISRDNAKNTVYLQMNSLKPEDTAVYYCNPLPDIVIGGIIGYDYWGQGTQVTVSS | high polyreactivity |
| QVQLVESGGGLVQAGGSLRLSCAASGIIFGFNAMGWYRQAPGKERELVAAINGDDSTYYADSVKGRFTISRDTAKNTVYFQMNSLKPEDTAVYYSAARYYRYLTFTGELLVYYWGQGTQVTVSS | low polyreactivity |
| QVQLVESGGGLVQAGGSLRLSCAASGIIFGFNAMGWYRQAPGKETELVAAINGDDSTYYADSVKGRFTISRDNAKNTVYLQMNSLKPEDTAVYYCAARYYRYLTFTGELLVYYWGQGTQVTVSS | low polyreactivity |
| QVQLVESGGGLVQAGGSLRLSCAASGIIFGFYAMGWYRQAPGKERELVAAITSGGRTDYADSVKGRFTISRDNAKNTVYLQMNSLKPEDTAVYYCAAEFTYYGARWGYLGDLDYWGQGTQVTVSS | high polyreactivity |
| QVQLVESGGGLVQAGGSLRLSCAASGIIFGGNVMGWYRQAPGKERELVAAISGGGGRTHYADSVKGRFTISRDNAKNTVYLQMNSLKPEDTAVYYCAVVTRYRYDYWGQGTQVTVSS | high polyreactivity |
| QVQLVESGGGLVQAGGSLRLSCAASGIIFGIYDMGWYRQAPGKESELVAAIRRSGGSTYYADSVKGRFTISRDNAKNTVYLQMNSLKPEDTAVYYCAATRHSRVRGGDYWGQGTQVTVSS | low polyreactivity |
| QVQLVESGGGLVQAGGSLRLSCAASGIIFGKYDMGWYRQAPGKERELVAAITSGTSTNYADSVKGRFTISRDNAKNTVYLQMNSLKPEDTAVYYCAADVYLYYPYFGHRRYNYWGQGTQVTVSS | high polyreactivity |
| QVQLVESGGGLVQAGGSLRLSCAASGIIFGLNDMGWYRQAPGKERELVADITYSGGSTYYADSVKGRFTISRDNAKNTVYLQMNSLKPEDTAVYYCAADEVSFWGYIYDYWGQGTQVTVSS | high polyreactivity |
